A value given as a limit tells only on which side of the number the result lay.

Assay [1] has as its target Tha4 A65CT78C (E10 background) (Pisum sativum). Nature of the assay: cross-linking; radiolabelled double-Cys Tha4 integrated into NEM-treated pea thylakoids; 0.25 mM BMOE, 10 min; four conditions: with or without precursor (V-20F)tOE17 (1.5 uM), with PMF (light, 15 °C) or without (dark, on ice; 0.5 uM nigericin and 1 uM valinomycin); SDS-PAGE and fluorography; result as told over the conditions.

In assay [2] the target is Tha4 E10D V8CP9C (Pisum sativum). The description is as above.
The target in assay [3] is Tha4 V8CP9C (E10 background) (Pisum sativum). Described as above.
Assay [4] shares this target. Nature of the assay: cross-linking; as a1, the samples with the functional precursor (V-20F)tOE17 (1.5 uM), with or without PMF.
The target in assay [5] is Tha4 E10A A18CL20C (Pisum sativum). Nature of the assay: cross-linking; as a1, the sample with the functional precursor (V-20F)tOE17 and with PMF (light).
The target in assay [6] is Tha4 V21CG23C (E10 background) (Pisum sativum). Briefly: cross-linking; radiolabelled double-Cys Tha4 integrated into NEM-treated pea thylakoids; 0.25 mM BMOE, 10 min; four conditions: with or without precursor (V-20F)tOE17 (1.5 uM), with PMF (light, 15 °C) or without (dark, on ice; 0.5 uM nigericin and 1 uM valinomycin); SDS-PAGE and fluorography; result as told over the conditions.

The target of assay [7] is Tha4 E10D P56CP58C (Pisum sativum). The description is as above.
The target in assay [8] is Tha4 E10A V21CG23C (Pisum sativum). The description is as above.
Assay [9] addresses Tha4 V13CI14C (E10 background) (Pisum sativum). The assay is described as above.
The target of assay [10] is Tha4 P56CP58C (E10 background) (Pisum sativum). Described as above.
In assay [11] the target is Tha4 E10A V8CP9C (Pisum sativum). The description is as above.
In assay [12] the target is Tha4 E10D K39CQ43C (Pisum sativum). Described as above.
The target in assay [13] is Tha4 E10A F41CA45C (Pisum sativum). The assay is described as above.
Assay [14] concerns the target Tha4 E10A P56CP58C (Pisum sativum). Described as above.

Substance “Tha4 A65CT78C (E10 background) (natural protein)” returned a stoichiometry N in assay [1] of under 5.
The substance Tha4 E10D V8CP9C (natural protein) yielded a stoichiometry N in assay [2] of under 6.
On to “Tha4 V8CP9C (E10 background) (natural protein)”, for which the stoichiometry N in [3] was under 4; in assay [4], under 6.
Regarding Tha4 E10A A18CL20C (natural protein), the stoichiometry N in assay [5] is under 4.
For the substance “Tha4 V21CG23C (E10 background) (natural protein)”, the bands in the oligomer ladder in assay [6] is under 6 bands.
For the substance Tha4 E10D P56CP58C (natural protein), the stoichiometry N in [7] is under 4.
In the case of Tha4 E10A V21CG23C (natural protein), the stoichiometry N in [8] was under 10.
“Tha4 V13CI14C (E10 background) (natural protein)”: in [9], the stoichiometry N is under 6.
In [10], “Tha4 P56CP58C (E10 background) (natural protein)” had a stoichiometry N of under 4.
For the substance Tha4 E10A V8CP9C (natural protein), the stoichiometry N in assay [11] was under 6.
As to Tha4 E10D K39CQ43C (natural protein), the stoichiometry N in assay [12] is under 4.
Substance Tha4 E10A F41CA45C (natural protein) had a stoichiometry N in [13] of under 6.
Tha4 E10A P56CP58C (natural protein) yielded a stoichiometry N in assay [14] of under 4.

For the origin of these results see article PMC12609122.
